Measured values: paper doi:10.1101/2025.05.14.654016

Biological target: LSSmGFP-PRL-3.C104D (human) (UniProt O75365)
Assay: FRET or BRET; in vitro FRET, competition: LSSmGFP-PRL3.C104D (250 nM) preincubated with competitor or test compound 30 min at room temperature, then HA-CBS-mScarlet3 (500 nM); 100 mM NaCl, 20 mM HEPES pH 7.5, 5% glycerol; normalised to DMSO control

Sequence of LSSmGFP-PRL-3.C104D (human) (O75365 whole entry C104D): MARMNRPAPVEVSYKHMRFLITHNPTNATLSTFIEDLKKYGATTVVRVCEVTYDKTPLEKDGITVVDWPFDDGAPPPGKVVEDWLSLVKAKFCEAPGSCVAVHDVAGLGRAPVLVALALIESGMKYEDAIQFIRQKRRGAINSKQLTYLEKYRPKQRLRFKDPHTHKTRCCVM

percent reduction of the FRET signal at 50 μM: 40%
Substance: PSM-001 (cyclic peptide, PRL substrate mimic) (from UniProt Q8NE01 416-432)
